{"source": "paper PMC6525112", "about": "“Vitamin D (1,25(OH)2D3) induces α-1-antitrypsin synthesis by CD4^+ T cells, which is required for 1,25(OH)2D3-driven IL-10” (The Journal of Steroid Biochemistry and Molecular Biology, 2019)", "binders": {"B1": {"name": "C3a (natural protein)", "chain": "not shown", "notes": "C3a anaphylatoxin, the cut product of complement C3; also called complement C3a; complement anaphylatoxin C3a; source: bought: Complement Technology, Inc"}, "B2": {"name": "Biotinylated-C3a (natural protein)", "chain": "not shown", "modifications": "biotin (biotinamidohexanoic acid 3-sulfo-N-hydroxysuccinimide ester, random, no more than one biotin per molecule of C3a)", "notes": "C3a anaphylatoxin, the cut product of complement C3; also called randomly biotinylated C3a; complement C3a; source: bought: Complement Technology Inc; biotinylated in-house"}}, "key": {"[1]": {"biological_target": "T1, NT-647 labelled recombinant α-1-antitrypsin (human, UniProt P01009 25-418, NT-647 label)", "T1 construct": "alpha-1-antitrypsin, human, recombinant from E. coli (not glycosylated); In the functional row the recombinant protein was used without the label; also called NT-647 labeled AAT; source: E. coli recombinant system, purified in-house", "T1 sequence (P01009 25-418)": "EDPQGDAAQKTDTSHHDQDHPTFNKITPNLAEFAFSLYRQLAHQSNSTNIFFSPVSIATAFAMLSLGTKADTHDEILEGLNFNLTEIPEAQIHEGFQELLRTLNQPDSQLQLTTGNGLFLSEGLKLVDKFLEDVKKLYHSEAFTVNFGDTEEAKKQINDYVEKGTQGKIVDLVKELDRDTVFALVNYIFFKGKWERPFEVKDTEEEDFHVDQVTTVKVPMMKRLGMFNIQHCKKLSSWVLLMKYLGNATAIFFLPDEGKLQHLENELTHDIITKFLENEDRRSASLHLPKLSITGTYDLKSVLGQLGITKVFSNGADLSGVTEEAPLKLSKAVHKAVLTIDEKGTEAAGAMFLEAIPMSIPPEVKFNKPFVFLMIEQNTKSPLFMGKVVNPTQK", "assay": "MST; Monolith NT.115, LED 70%, MST power 20%; 0.5 μM NT-647 labelled α-1-antitrypsin incubated 30 min with C3a at 6 nM to 205 μM", "details": "both partners purified"}, "[2]": {"biological_target": "T2, α-1-antitrypsin (analyte of the SPR assay) (human, UniProt P01009 25-418)", "T2 construct": "alpha-1-antitrypsin, human; May be the same preparation as m1 or the unlabelled form of m2; also called AAT", "T2 sequence (P01009 25-418)": "as above", "assay": "SPR; Biacore T200; biotinylated C3a immobilised by amine coupling on CM5 chip (800-1500 RU); serially diluted α-1-antitrypsin injected at 10 μl/minute in Dulbecco's PBS; regeneration 2.0 M KCl; blank surface subtracted", "details": "both partners purified"}}, "data": [{"binder": "B1", "values": [{"measurement": "Kd", "setting": "[1]", "result": 8.4, "unit": "µM"}]}, {"binder": "B2", "values": [{"measurement": "Kd", "setting": "[2]", "result": 7.53, "unit": "µM"}]}]}
